From PMC2767265 (Nature structural & molecular biology, 2008)
Where two headings read alike, the source gives them in different places.

T1: Ffh (E. coli SRP protein), wild type (E. coli, UniProt P0AGD7 1-453)
T1 sequence (looked up): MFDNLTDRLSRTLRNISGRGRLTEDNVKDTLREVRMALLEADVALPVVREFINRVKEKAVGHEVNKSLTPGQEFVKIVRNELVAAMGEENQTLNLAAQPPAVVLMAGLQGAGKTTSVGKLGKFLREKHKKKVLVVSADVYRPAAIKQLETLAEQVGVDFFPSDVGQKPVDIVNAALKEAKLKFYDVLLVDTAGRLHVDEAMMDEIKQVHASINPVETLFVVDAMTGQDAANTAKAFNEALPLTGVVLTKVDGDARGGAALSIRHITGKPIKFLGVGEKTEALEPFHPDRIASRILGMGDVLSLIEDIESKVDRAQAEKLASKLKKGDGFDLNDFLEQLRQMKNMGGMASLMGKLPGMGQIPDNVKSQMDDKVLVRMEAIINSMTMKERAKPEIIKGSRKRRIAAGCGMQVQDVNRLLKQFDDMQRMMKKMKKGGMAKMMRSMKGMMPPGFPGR


How the values were obtained:
Assay in all cases: other fluorescence titration
[1] = biological target: T1, Ffh (E. coli SRP protein), wild type
[2] = biological target: T1, Ffh (E. coli SRP protein), wild type; remark: listed apart in the source
[3] = biological target: T1, Ffh (E. coli SRP protein), wild type; remark: listed apart in the source

Row | Binder | binding result [1] | Kd [2] [nM] | koff [2] [s⁻¹] | kon [2] [M⁻¹ s⁻¹] | Kd [3] [nM] | koff [3] [s⁻¹] | kon [3] [M⁻¹ s⁻¹]
1 | FtsY204 (FtsY residues 204-497, includes helix N1) (domain or fragment, E. coli, UniProt P10121 204-497, looked up, for NMR: 13C on the methyl groups of isoleucine, leucine and valine) LKTKENLGSGFISLFRGKKIDDDLFEELEEQLLIADVGVETTRKIITNLTEGASRKQLRDAEALYGLLKEEMGEILAKVDEPLNVEGKAPFVILMVGVNGVGKTTTIGKLARQFEQQGKSVMLAAGDTFRAAAVEQLQVWGQRNNIPVIAQHTGADSASVIFDAIQAAKARNIDVLIADTAGRLQNKSHLMEELKKIVRVMKKLDVEAPHEVMLTIDASTGQNAVSQAKLFHEAVGLTGITLTKLDGTAKGGVIFSVADQFGIPIRYIGVGERIEDLRPFKADDFIEALFARED | binds |  |  |  |  |  | 
2 | FtsY lacking the first 46 amino acids of the A domain (wild-type reference) (domain or fragment, E. coli, UniProt P10121 47-497, looked up) ASEQAVEEQPQAHTEAEAETFAADVVEVTEQVAESEKAQPEAEVVAQPEPVVEETPEPVAIEREELPLPEDVNAEAVSPEEWQAEAETVEIVEAAEEEAAKEEITDEELETALAAEAAEEAVMVVPPAEEEQPVEEIAQEQEKPTKEGFFARLKRSLLKTKENLGSGFISLFRGKKIDDDLFEELEEQLLIADVGVETTRKIITNLTEGASRKQLRDAEALYGLLKEEMGEILAKVDEPLNVEGKAPFVILMVGVNGVGKTTTIGKLARQFEQQGKSVMLAAGDTFRAAAVEQLQVWGQRNNIPVIAQHTGADSASVIFDAIQAAKARNIDVLIADTAGRLQNKSHLMEELKKIVRVMKKLDVEAPHEVMLTIDASTGQNAVSQAKLFHEAVGLTGITLTKLDGTAKGGVIFSVADQFGIPIRYIGVGERIEDLRPFKADDFIEALFARED |  | 82.7 ± 13 | 8.6e-06 | 104 | 68.4 ± 4.2 | 0.00265 | 38800
3 | FtsYΔN1 (FtsY residues 221-497, lacks the A domain and the first helix of the N domain) (domain or fragment, E. coli, UniProt P10121 221-497, looked up) KKIDDDLFEELEEQLLIADVGVETTRKIITNLTEGASRKQLRDAEALYGLLKEEMGEILAKVDEPLNVEGKAPFVILMVGVNGVGKTTTIGKLARQFEQQGKSVMLAAGDTFRAAAVEQLQVWGQRNNIPVIAQHTGADSASVIFDAIQAAKARNIDVLIADTAGRLQNKSHLMEELKKIVRVMKKLDVEAPHEVMLTIDASTGQNAVSQAKLFHEAVGLTGITLTKLDGTAKGGVIFSVADQFGIPIRYIGVGERIEDLRPFKADDFIEALFARED |  | 7.98 ± 1.1 | 5.47e-06 | 685 | 14.9 ± 2.1 | 0.000605 | 40500
